In patent US20240392013A1 (STELEXIS THERAPEUTICS, published 2024):
Residue numbers refer to the chain shown, from its start.

B1: STLX2012 (antibody, V domains shown)
VH: QVQLLQSGAEVKKPGSSVKVSCKASGGTFSIYAIDWVRQAPGQGLEWMGGIIPIFGTANSAQKFQGRVTITADKSTSTAYMELSSLRSEDTAVYYCARNGATSDAFDMWGQGTMVTVSS
VL: EIVLTQSPGTLSLSPGERATLSCRASLSVSSNYLAWFQQRPGQAPRLLIHGVSRRATGIPDRFSGSGSGTDFTLTISRLEPEDFAVYYCQQYGSSPLTFGGGTKVEIK
notes: Purified from hybridoma of immunized Alivamab mice; intact IgG; captured on anti-mouse IgG Fc sensors in Octet; kappa light chain; also called 74804_12A21B
B2: STLX2043 (antibody, V domains shown)
VH: B1 VH with A58E, K63N, V68I, S77N, M108I, S118F
VL: B1 VL with H50Y
notes: Purified from hybridoma of immunized Alivamab mice; intact IgG; captured on anti-mouse IgG Fc sensors in Octet; kappa light chain; also called 74804_43F04A

Assays:
[1] = target: T1, recombinant mouse IL1RAP protein (Sino Biological, Cat #52657-M08H) (mouse, UniProt Q61730 21-359); assay: cell-free ELISA, mouse IL1RAP coated; data not shown
T1 construct: Bought protein
T1 sequence (looked up): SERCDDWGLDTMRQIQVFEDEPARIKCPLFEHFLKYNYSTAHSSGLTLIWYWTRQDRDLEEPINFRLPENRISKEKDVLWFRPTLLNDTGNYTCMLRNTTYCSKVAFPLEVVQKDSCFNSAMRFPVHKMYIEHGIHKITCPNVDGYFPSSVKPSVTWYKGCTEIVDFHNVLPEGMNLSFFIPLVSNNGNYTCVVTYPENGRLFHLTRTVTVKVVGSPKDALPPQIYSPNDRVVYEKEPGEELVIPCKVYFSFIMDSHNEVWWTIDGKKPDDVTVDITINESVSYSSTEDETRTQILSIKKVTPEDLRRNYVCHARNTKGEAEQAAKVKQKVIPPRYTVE
In short: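 Plates coated overnight at 4 °C with recombinant IL1RAP at 1 μg/ml in PBS pH 7.4, then blocked with 1% BSA. Antibodies incubated 1 h at room temperature from 100 nM in seven half-log dilutions. Bound antibody detected with anti-His HRP and chemiluminescence.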

[2] = target: T2, recombinant human IL1RAP protein, extracellular domain His-tagged (Sino Biological, Cat #10121-H08H) (human, UniProt Q9NPH3 21-367); assay: cell-free ELISA, human IL1RAP coated at 1 µg/ml
T2 construct: extracellular domain; Bought protein; The Octet analyte is printed as huIL1RAP-His (Sino Biological, lot MB08MA1301) without a catalogue number; also called huIL1RAP-His; hIL1RAP; not shown: His tag
T2 sequence (looked up): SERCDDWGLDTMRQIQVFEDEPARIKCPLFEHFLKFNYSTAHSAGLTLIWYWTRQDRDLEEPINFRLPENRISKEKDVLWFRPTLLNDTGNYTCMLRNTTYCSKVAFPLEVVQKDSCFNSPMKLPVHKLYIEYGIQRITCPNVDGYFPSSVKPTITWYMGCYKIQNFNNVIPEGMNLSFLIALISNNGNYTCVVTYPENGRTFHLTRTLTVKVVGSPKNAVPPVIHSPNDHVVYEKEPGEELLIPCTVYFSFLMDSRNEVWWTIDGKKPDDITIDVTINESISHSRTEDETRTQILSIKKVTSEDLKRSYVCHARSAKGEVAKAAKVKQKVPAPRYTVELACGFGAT
Experimental: Recombinant human or mouse IL1RAP proteins (Sino Biological, Beijing, China; Cat #10121-H08H and Sino Biological, Cat #52657-M08H respectively) were diluted in PBS, pH 7.4 at concentration of 1 μg/ml, coated on high-binding 384-well clear plates and incubated overnight at 4° C. Following, plates were washed 3× with 0.05% Tween-20 in PBS, pH 7.5 and then blocked with 1% BSA in PBS for 1 hour at room temperature. After 3× washes, wells were incubated with each antibody at the highest concentration of 100 nM followed by seven serial half log dilutions (in 1% BSA and 0.05% Tween-20 in PBS) for 1 hour at room temperature. Plates were then washed 3× and incubated with […] detection antibody (Medna, TX, USA; Cat #D8212, 0.5 μg/ml diluted in 0.02% Tween-20 in PBS). After 5× washes, Supersignal ELISA Pico substrate (Thermofisher, MA, USA; Cat #37069) was applied to wells and chemiluminescent signal was read on Sprectramax L for 200 ms/well. Similarly, detection with specific κ and λ antibodies was conducted to define light chain isotyping.

[3] = target: T3, IL1RAP on HEK-Blue IL1β / HEK-Blue IL33 reporter cells (UniProt Q9NPH3 21-570, limits assumed); assay: cell-based or functional assay
T3 sequence (looked up): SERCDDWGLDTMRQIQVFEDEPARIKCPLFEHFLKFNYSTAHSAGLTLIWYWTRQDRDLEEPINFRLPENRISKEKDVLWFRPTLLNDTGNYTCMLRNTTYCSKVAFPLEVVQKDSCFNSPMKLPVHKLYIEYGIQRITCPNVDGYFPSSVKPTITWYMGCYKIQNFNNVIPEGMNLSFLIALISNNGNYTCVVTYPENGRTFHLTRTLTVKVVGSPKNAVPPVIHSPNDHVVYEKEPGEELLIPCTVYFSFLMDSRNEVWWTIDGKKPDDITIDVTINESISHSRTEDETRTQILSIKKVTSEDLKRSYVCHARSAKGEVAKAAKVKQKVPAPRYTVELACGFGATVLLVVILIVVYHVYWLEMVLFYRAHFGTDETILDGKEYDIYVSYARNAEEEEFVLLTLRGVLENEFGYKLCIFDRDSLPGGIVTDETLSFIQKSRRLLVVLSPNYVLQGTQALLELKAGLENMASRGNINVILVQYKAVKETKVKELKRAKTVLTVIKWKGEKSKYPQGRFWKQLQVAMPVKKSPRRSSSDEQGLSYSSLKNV

[4] = target: T4, cyIL1RAP-His (Lake Pharma) (cynomolgus monkey, UniProt A0A2K5X5J5 21-367); assay: Octet BLI; mAb captured on anti-mouse IgG Fc sensor; cyIL1RAP-His analyte
T4 construct: Bought protein (Lake Pharma, lot 16205819371); also called cynomolgus IL1RAP; monkey IL1RAP; not shown: His tag
T4 sequence: T2 sequence (looked up) with L183F, T273P, K326T
In short: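 Antibodies at 5 μg/ml were captured on anti-mouse IgG Fc biosensors; His-tagged human or cynomolgus IL1RAP extracellular domain served as analyte at 100, 50 and 25 nM in PBS kinetics buffer (0.1% BSA, 0.02% Tween-20). Association 120 s, dissociation 1200 s; KD (M) calculated from binding kinetics.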

| Binder | binding result [1] | EC50 [2] | Max % Inhibition at 200 nM, HEK-BlueIL33 NFκB Reporter Assay [3] | Kd [4] | Response [4] | koff [4] | kon [4] | IC50, HEK-BlueIL33 NFκB Reporter Assay [3] |
| --- | --- | --- | --- | --- | --- | --- | --- | --- |
| B1 | no binding (tested: 100 nM) | 0.985 nM | 95% | 1.29 nM | 0.328 | 0.000441 s⁻¹ | 342000 M⁻¹ s⁻¹ | – |
| B2 | no binding (tested: 100 nM) | 1.04 nM | 85% | 0.97 nM | 0.286 | 0.0004 s⁻¹ | 412000 M⁻¹ s⁻¹ | 9.62e-09 M (implied; unit not printed) |
